Assay results reported in the supplement of paper PMC5998384.

Tests used:
HeLa Kyoto [1] = assay: solubility in G1/S (NP-40 vs SDS abundance) (log2 ratio); higher = more soluble; settings: cell cycle stage: G1/S
HeLa Kyoto [2] = assay: melting temperature (median over replicates), in situ; higher = more thermally stable
HeLa Kyoto [3] = assay: solubility change mitosis vs G1/S (difference of NP-40 vs SDS log2 ratios) (log2 ratio difference); higher = more soluble in mitosis
HeLa Kyoto [4] = assay: thermal stability score vs G1/S (z-score of summed log2 fold changes over temperatures); higher = more thermally stable than in G1/S
[5] = cell cycle stage: early G1 (4.5 h after nocodazole release)
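Wherever melting temperature (median over replicates), in situ is given: HeLa Kyoto cells synchronized by double thymidine or nocodazole block, proteins quantified by TMT10plex mass spectrometry, three independent biological replicates.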
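Wherever solubility change mitosis vs G1/S (difference of NP-40 vs SDS log2 ratios) is given: synchronized HeLa Kyoto cells (double thymidine block for G1/S, nocodazole release for mitosis), protein amounts in NP-40 versus SDS lysates quantified by mass spectrometry, three biological replicates.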
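Wherever solubility in G1/S (NP-40 vs SDS abundance) is given: HeLa Kyoto cells arrested at G1/S by double thymidine block, proteins quantified by TMT10plex mass spectrometry in mild NP-40 versus SDS extracts, three biological replicates.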
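Wherever thermal stability score vs G1/S (z-score of summed log2 fold changes over temperatures) is given: synchronized HeLa Kyoto cells, proteins quantified by TMT10plex mass spectrometry, three biological replicates, mitosis taken 0.5 h after nocodazole release, G1/S directly after double thymidine block.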

Row | Sequence | solubility in G1/S (log2) (HeLa Kyoto [1]) | melting temperature (HeLa Kyoto [2]; cell cycle stage: G1/S) [°C] | melting temperature (HeLa Kyoto [2]; cell cycle stage: mitosis) [°C] | solubility change mitosis (log2) (HeLa Kyoto [3]) | thermal stability score (HeLa Kyoto [4]; [5]) | thermal stability score (HeLa Kyoto [4]; cell cycle stage: mitosis)
1 | MASKGAGMSFSRKSYRLTSDAEKSRVTGIVQEKLLNDYLNRIFSSSEHAPPAATSRKPLNFQNLPEHLDQLLQVDNEEEESQGQVEGRLGPSTVVLDHTGGFEGLLLVDDDLLGVIGHSNFGTIRSTTCVYKGKWLYEVLISSQGLMQIGWCTISCRFNQEEGVGDTHNSYAYDGNRVRKWNVTTTNYGKAWAAGDIVSCLIDLDDGTLSFCLNGVSLGTAFENLSRGLGMAYFPAISLSFKESVAFNFGSRPLRYPVAGYRPLQDPPSADLVRAQRLLGCFRAVLSVELDPVEGRLLDKESSKWRLRGQPTVLLTLAHIFHHFAPLLRKVYLVEAVLMSFLLGIVEKGTPTQAQSVVHQVLDLLWLFMEDYEVQDCLKQLMMSLLRLYRFSPIVPDLGLQIHYLRLTIAILRHEKSRKFLLSNVLFDVLRSVVFFYIKSPLRVEEAGLQELIPTTWWPHCSSREGKESTEMKEETAEERLRRRAYERGCQRLRKRIEVVEELQVQILKLLLDNKDDNGGEASRYIFLTKFRKFLQENASGRGNMPMLCPPEYMVCFLHRLISALRYYWDEYKASNPHASFSEEAYIPPQVFYNGKVDYFDLQRLGGLLSHLRKTLKDDLASKANIVIDPLELQSTAMDDLDEDEEPAPAMAQRPMQALAVGGPLPLPRPGWLSSPTLGRANRFLSTAAVSLMTPRRPLSTSEKVKVRTLSVEQRTREDIEGSHWNEGLLLGRPPEEPEQPLTENSLLEVLDGAVMMYNLSVHQQLGKMVGVSDDVNEYAMALRDTEDKLRRCPKRRKDILAELTKSQKVFSEKLDHLSRRLAWVHATVYSQEKMLDIYWLLRVCLRTIEHGDRTGSLFAFMPEFYLSVAINSYSALKNYFGPVHSMEELPGYEETLTRLAAILAKHFADARIVGTDIRDSLMQALASYVCYPHSLRAVERIPEEQRIAMVRNLLAPYEQRPWAQTNWILVRLWRGCGFGYRYTRLPHLLKTKLEDANLPSLQKPCPSTLLQQHMADLLQQGPDVAPSFLNSVLNQLNWAFSEFIGMIQEIQQAAERLERNFVDSRQLKVCATCFDLSVSLLRVLEMTITLVPEIFLDWTRPTSEMLLRRLAQLLNQVLNRVTAERNLFDRVVTLRLPGLESVDHYPILVAVTGILVQLLVRGPASEREQATSVLLADPCFQLRSICYLLGQPEPPAPGTALPAPDRKRFSLQSYADYISADELAQVEQMLAHLTSASAQAAAASLPTSEEDLCPICYAHPISAVFQPCGHKSCKACINQHLMNNKDCFFCKTTIVSVEDWEKGANTSTTSSAA [RNF123] | -0.366 | 50.4 | 50.3 | 0.0631 | -0.758 | 0.258
2 | MASLDDPGEVREGFLCPLCLKDLQSFYQLHSHYEEEHSGEDRDVKGQIKSLVQKAKKAKDRLLKREGDDRAESGTQGYESFSYGGVDPYMWEPQELGAVRSHLSDFKKHRAARIDHYVVEVNKLIIRLEKLTAFDRTNTESAKIRAIEKSVVPWVNDQDVPFCPDCGNKFSIRNRRHHCRLCGSIMCKKCMELISLPLANKLTSASKESLSTHTSPSQSPNSVHGSRRGSISSMSSVSSVLDEKDDDRIRCCTHCKDTLLKREQQIDEKEHTPDIVKLYEKLRLCMEKVDQKAPEYIRMAASLNAGETTYSLEHASDLRVEVQKVYELIDALSKKILTLGLNQDPPPHPSNLRLQRMIRYSATLFVQEKLLGLMSLPTKEQFEELKKKRKEEMERKRAVERQAALESQRRLEERQSGLASRAANGEVASLRRGPAPLRKAEGWLPLSGGQGQSEDSDPLLQQIHNITSFIRQAKAAGRMDEVRTLQENLRQLQDEYDQQQTEKAIELSRRQAEEEDLQREQLQMLRERELEREREQFRVASLHTRTRSLDFREIGPFQLEPSREPRTHLAYALDLGSSPVPSSTAPKTPSLSSTQPTRVWSGPPAVGQERLPQSSMPQQHEGPSLNPFDEEDLSSPMEEATTGPPAAGVSLDPSARILKEYNPFEEEDEEEEAVAGNPFIQPDSPAPNPFSEEDEHPQQRLSSPLVPGNPFEEPTCINPFEMDSDSGPEAEEPIEEELLLQQIDNIKAYIFDAKQCGRLDEVEVLTENLRELKHTLAKQKGGTD [RBSN] | 0.33 | 50.7 | 50.4 | -0.00797 | 0.55 | 1.28
3 | MASNMDREMILADFQACTGIENIDEAITLLEQNNWDLVAAINGVIPQENGILQSEYGGETIPGPAFNPASHPASAPTSSSSSAFRPVMPSRQIVERQPRMLDFRVEYRDRNVDVVLEDTCTVGEIKQILENELQIPVSKMLLKGWKTGDVEDSTVLKSLHLPKNNSLYVLTPDLPPPSSSSHAGALQESLNQNFMLIITHREVQREYNLNFSGSSTIQEVKRNVYDLTSIPVRHQLWEGWPTSATDDSMCLAESGLSYPCHRLTVGRRSSPAQTREQSEEQITDVHMVSDSDGDDFEDATEFGVDDGEVFGMASSALRKSPMMPENAENEGDALLQFTAEFSSRYGDCHPVFFIGSLEAAFQEAFYVKARDRKLLAIYLHHDESVLTNVFCSQMLCAESIVSYLSQNFITWAWDLTKDSNRARFLTMCNRHFGSVVAQTIRTQKTDQFPLFLIIMGKRSSNEVLNVIQGNTTVDELMMRLMAAMEIFTAQQQEDIKDEDEREARENVKREQDEAYRLSLEADRAKREAHEREMAEQFRLEQIRKEQEEEREAIRLSLEQALPPEPKEENAEPVSKLRIRTPSGEFLERRFLASNKLQIVFDFVASKGFPWDEYKLLSTFPRRDVTQLDPNKSLLEVKLFPQETLFLEAKE [FAF1] | 0.0926 | 53.6 | 53.5 | -0.147 | 0.291 | 1.77
4 | MASPGCLLCVLGLLLCGAASLELSRPHGDTAKKPIIGILMQKCRNKVMKNYGRYYIAASYVKYLESAGARVVPVRLDLTEKDYEILFKSINGILFPGGSVDLRRSDYAKVAKIFYNLSIQSFDDGDYFPVWGTCLGFEELSLLISGECLLTATDTVDVAMPLNFTGGQLHSRMFQNFPTELLLSLAVEPLTANFHKWSLSVKNFTMNEKLKKFFNVLTTNTDGKIEFISTMEGYKYPVYGVQWHPEKAPYEWKNLDGISHAPNAVKTAFYLAEFFVNEARKNNHHFKSESEEEKALIYQFSPIYTGNISSFQQCYIFD [GGH] | 0.326 | 60.5 | 60 | -0.0381 | 0.878 | -0.77
5 | MASPQLCRALVSAQWVAEALRAPRAGQPLQLLDASWYLPKLGRDARREFEERHIPGAAFFDIDQCSDRTSPYDHMLPGAEHFAEYAGRLGVGAATHVVIYDASDQGLYSAPRVWWMFRAFGHHAVSLLDGGLRHWLRQNLPLSSGKSQPAPAEFRAQLDPAFIKTYEDIKENLESRRFQVVDSRATGRFRGTEPEPRDGIEPGHIPGTVNIPFTDFLSQEGLEKSPEEIRHLFQEKKVDLSKPLVATCGSGVTACHVALGAYLCGKPDVPIYDGSWVEWYMRARPEDVISEGRGKTH [MPST] | 0.45 | 50.1 | 50.5 | -0.0783 | 3.35 | 0.97
